Test results published in patent US20240158512A1 (TRUEBINDING, published 2024).

Target: T1, Galectin-3 (UniProt P17931 1-250, limits assumed)
T1 construct: Target of the anti-Gal3 antibody TB006; also called Gal3; GAL3
Assay: ELISA (Biological Activity); accelerated stability 25 C/60% RH, 3 months

T1 sequence (P17931 whole entry): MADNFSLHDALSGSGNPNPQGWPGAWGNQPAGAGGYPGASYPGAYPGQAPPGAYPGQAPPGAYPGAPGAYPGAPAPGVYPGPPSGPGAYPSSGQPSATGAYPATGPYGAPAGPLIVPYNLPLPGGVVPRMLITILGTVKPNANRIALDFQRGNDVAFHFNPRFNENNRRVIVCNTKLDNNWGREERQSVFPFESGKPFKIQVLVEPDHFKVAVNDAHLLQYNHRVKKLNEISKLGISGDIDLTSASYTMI

IC50: 1.5 µg/mL
B1: TB006 (antibody, human IgG4 S228P, kappa, V domains shown)
VH: QVQLVQSGAEVKKPGASVKVSCKASGYSFTNYYMHWVRQAPGQRLEWMGWIYPGSGNTNYNEKFQGRVTITADTSASTAYMELSSLRSEDTAVYYCSTAPGGFDVWGQGTTVTVSS
VL: DIVMTQTPLSLSVTPGQPASISCKSSKSLLHSDGITYLYWYLQKPGQSPQLLIYRMSNLASGVPDRFSGSGSGTDFTLKISRVEAEDVGVYYCAQMLEFPLTFGQGTKLEIKR
notes: Tested as formulated drug substance or drug product in 20 mM L-histidine, 5 mM methionine, 100 mM NaCl, 0.02% polysorbate 80, pH 5.8, or diluted in 0.9% saline; also called 4A11.H3L1; IMT006a
